Measurements reported in patent publication US6713249B2, “Cell matrix plaques of initial bone formation” (Barnes-Jewish Hospital, priority 1998, dated 2004).

System: αvβ3 integrin plaque-like cell/matrix areas in human preosteoblasts
Assay: Immunocytochemical localization of cell surface αvβ3 integrin plaques in non-permeabilized cells
Assay type: cell-based
Conditions: bone marrow stromal cells in osteogenic medium with 40 ng/ml OP-1 for 48 hours, non-strained, no Triton X-100; compare FIG. 1C with FIG. 2C
Procedure: Bone marrow stromal cells grown to semi-confluence and then exposed to osteogenic medium containing 10 mM of β-glycerophosphate, 50 μg/ml ascorbic acid and 40 ng/ml of osteogenic protein OP-1(32) also referred to as bone morphogenetic protein-7 (BMP-7), for 48 hours were defined as preosteoblasts. These preosteoblast cultures are characterized by alkaline phosphatase activity of 80,000 nmole pNPP/min./μg protein, osteopontin expression, absence of osteocalcin expression, and mineralization after 14 days in osteogenic media. […]
Immunocytochemical analysis essentially was performed as previously described (34). […] The results were analyzed either on Zeiss Fluorescent Microscope (Axioscope) using a 63× oil immersion lens or on a Zeiss laser confocal microscope using a 63× lens. […]
In order to examine whether mechanical strain has a qualitative and/or quantitative effect on the localization and expression level of integrins, near-confluent human preosteoblasts and osteoprogenitors were strained on Flexcell Strain Apparatus, as described in Methods. […] In the presence of Triton X-100, which leads to cell permeabilization and thus, allows examination of the distribution of intracellular as well as cell surface molecules, the αvβ3 integrin, as detected by an anti-human αvβ3 antibody, was localized along actin fibers and in small, granular structures adjacent to actin fibers (FIGS. 1A, 1B, 2A and 2B). […]

B1: OP-1: osteogenic protein OP-1, also referred to as bone morphogenetic protein-7 (BMP-7), component of the osteogenic medium (protein, UniProt P18075 293-431, looked up)
Bone morphogenetic protein 7: STGSKQRSQNRSKTPKNQEALRMANVAENSSSDQRQACKKHELYVSFRDLGWQDWIIAPEGYAAYYCEGECAFPLNSYMNATNHAIVQTLVHFINPETVPKPCCAPTQLNAISVLYFDDSSNVILKKYRNMVVRACGCH
  number of the plaque-like cell/matrix areas of the αvβ3 expression: stimulation
